According to patent US20230265184A1:

Target: m19-humBBz CAR (mouse; human) (UniProt P01731)
Experiment: cell-based or functional assay

Row | NF-κB signaling in NF-κB/293/GFP-Luc reporter cells, GFP MFI | NF-κB signaling in NF-κB/293/GFP-Luc reporter cells, GFP+% | NF-κB signaling in NF-κB/293/GFP-Luc reporter cells, GFP % | Binder
1 | 14300 MFI | 63.5% |  | TRAF2 DN (87-501aa) (protein, UniProt Q12933 87-501, looked up, not shown: small tags and cut ends; large carriers) SSSAFPDNAARREVESLPAVCPSDGCTWKGTLKEYESCHEGRCPLMLTECPACKGLVRLGEKERHLEHECPERSLSCRHCRAPCCGADVKAHHEVCPKFPLTCDGCGKKKIPREKFQDHVKTCGKCRVPCRFHAIGCLETVEGEKQQEHEVQWLREHLAMLLSSVLEAKPLLGDQSHAGSELLQRCESLEKKTATFENIVCVLNREVERVAMTAEACSRQHRLDQDKIEALSSKVQQLERSIGLKDLAMADLEQKVLEMEASTYDGVFIWKISDFARKRQEAVAGRIPAIFSPAFYTSRYGYKMCLRIYLNGDGTGRGTHLSLFFVVMKGPNDALLRWPFNQKVTLMLLDQNNREHVIDAFRPDVTSSSFQRPVNDMNIASGCPLFCPVSKMEAKNSYVRDDAIFIKAIVDLTGL
2 | 1690 MFI |  | 13.4% | TRAF1 DN (184-417aa) (protein, UniProt Q13077 184-416, looked up, not shown: small tags and cut ends; large carriers) EKLLAELEGKLRVFENIVAVLNKEVEASHLALATSIHQSQLDRERILSLEQRVVELQQTLAQKDQALGKLEQSLRLMEEASFDGTFLWKITNVTRRCHESACGRTVSLFSPAFYTAKYGYKLCLRLYLNGDGTGKRTHLSLFIVIMRGEYDALLPWPFRNKVTFMLLDQNNREHAIDAFRPDLSSASFQRPQSETNVASGCPLFFPLSKLQSPKHAYVKDDTMFLKCIVETST
3 | 6060 MFI |  | 30.8% | TRAF3 DN (382-568aa) (protein, UniProt Q13114 382-568, looked up, not shown: small tags and cut ends; large carriers) ESQLSRHDQMLSVHDIRLADMDLRFQVLETASYNGVLIWKIRDYKRRKQEAVMGKTLSLYSQPFYTGYFGYKMCARVYLNGDGMGKGTHLSLFFVIMRGEYDALLPWPFKQKVTLMLMDQGSSRRHLGDAFKPDPNSSSFKKPTGEMNIASGCPVFVAQTVLENGTYIKDDTIFIKVIVDTSDLPDP
